Source: patent US20040058403A1

Target: peptide(18mer)-BodipyFL

“NlpA-[Dig scFv] (26-10 anti-digoxin/digoxigenin scFv fused to the NlpA anchor) (from UniProt P04846 24-29)” showed a M (mean fluorescence, FL1-Height) of 6.78.
